From paper PMC8408231, “The basic helix-loop-helix transcription factor TabHLH1 increases chlorogenic acid and luteolin biosynthesis in Taraxacum antungense Kitag” come the findings set out here.

The data set has as its target T1, TabHLH1 (Taraxacum antungense Kitag, UniProt A0A482LNV1 1-521).
T1 sequence: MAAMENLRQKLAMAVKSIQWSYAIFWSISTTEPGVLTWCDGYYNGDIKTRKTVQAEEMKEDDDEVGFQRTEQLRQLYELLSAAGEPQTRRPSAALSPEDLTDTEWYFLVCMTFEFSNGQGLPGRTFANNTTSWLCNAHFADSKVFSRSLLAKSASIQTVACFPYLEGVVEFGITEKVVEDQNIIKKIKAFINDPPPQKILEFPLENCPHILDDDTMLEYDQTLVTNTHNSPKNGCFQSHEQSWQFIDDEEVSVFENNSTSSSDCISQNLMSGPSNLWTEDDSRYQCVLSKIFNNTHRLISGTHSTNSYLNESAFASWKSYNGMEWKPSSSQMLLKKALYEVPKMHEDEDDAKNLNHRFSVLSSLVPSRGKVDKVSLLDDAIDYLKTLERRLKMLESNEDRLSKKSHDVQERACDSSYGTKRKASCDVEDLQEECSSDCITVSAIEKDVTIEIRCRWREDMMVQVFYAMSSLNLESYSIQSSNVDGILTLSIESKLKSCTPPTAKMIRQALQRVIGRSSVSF
Nature of the data set: EMSA; unlabeled identical cold probe used as control; EMSA binding buffer (Beyotime, 10x stock), 25 °C, 30 min; salt and pH not stated. The following applies: protein: recombinant; tags: GST (pGEX4T-1); chain copies: 2; label: 3' biotin on both strands; blunt. For orientation: A gel shift assay detects complexes by their altered migration in electrophoresis.

B1: Ta4CL promoter E-box probe (dsDNA)
DNA 1: TGGCCAAAATCCCATGTGATTTCGGCCCAC
DNA 2: GTGGGCCGAAATCACATGGGATTTTGGCCA
With B1, the binding result was “binds”.

B2: TaHQT2 promoter E-box probe (dsDNA)
DNA 1: CGAACGGAGGAACATGTGTGCTCTGAAAAT
DNA 2: ATTTTCAGAGCACACATGTTCCTCCGTTCG
For the molecule B2, the binding result is given as “binds”.
